The target of this experiment is human CTLA-4 (as crystallised with 4003-1 (VH)) (human, UniProt P16410). The experiment in a line: crystal structure.
human CTLA-4 (as crystallised with 4003-1 (VH)), sequence (P16410 36-154): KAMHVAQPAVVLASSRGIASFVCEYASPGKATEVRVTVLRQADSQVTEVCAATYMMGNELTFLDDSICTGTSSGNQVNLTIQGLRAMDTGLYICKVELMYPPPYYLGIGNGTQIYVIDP

B1: 4003-1 (VH) (VHH)
VHH: EVQLVESGGGLIQPGGSLRLSCAVSGFTVSKNYMSWVRQAPGKGLEWVSVVYSGGSKTYADSVKGRFTISRDNSKNTLYLQMNSLRAEDTAVYYCARAVPHSPSSFDIWGQGTMVTVSS
Regarding B1, the binding result was “binds”.

These data come from article PMC9371702 (Proceedings of the National Academy of Sciences of the …, 2022).
